Numbering of substitutions follows the chain as printed.
Tests used:
Assay in all cases: cell_activity
[1] = test system: T1, Rec2 WP_006717173.1 (Aggregatibacter segnis); details: HEK293T inversion; background 0.2565; repeat 0.27 vs 0.265
T1 sequence: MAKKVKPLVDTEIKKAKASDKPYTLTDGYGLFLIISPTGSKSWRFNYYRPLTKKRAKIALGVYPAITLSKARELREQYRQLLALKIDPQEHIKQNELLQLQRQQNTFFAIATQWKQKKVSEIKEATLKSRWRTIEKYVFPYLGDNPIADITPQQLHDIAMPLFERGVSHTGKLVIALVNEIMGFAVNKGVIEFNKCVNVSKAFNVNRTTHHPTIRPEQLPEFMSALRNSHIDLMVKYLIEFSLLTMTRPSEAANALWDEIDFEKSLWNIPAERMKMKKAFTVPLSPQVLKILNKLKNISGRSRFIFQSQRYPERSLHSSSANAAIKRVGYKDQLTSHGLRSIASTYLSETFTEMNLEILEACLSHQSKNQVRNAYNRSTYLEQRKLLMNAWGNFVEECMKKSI

[2] = test system: T2, Rec3 WP_006718580.1 (Aggregatibacter segnis); details: HEK293T inversion; background 0.2565
T2 sequence: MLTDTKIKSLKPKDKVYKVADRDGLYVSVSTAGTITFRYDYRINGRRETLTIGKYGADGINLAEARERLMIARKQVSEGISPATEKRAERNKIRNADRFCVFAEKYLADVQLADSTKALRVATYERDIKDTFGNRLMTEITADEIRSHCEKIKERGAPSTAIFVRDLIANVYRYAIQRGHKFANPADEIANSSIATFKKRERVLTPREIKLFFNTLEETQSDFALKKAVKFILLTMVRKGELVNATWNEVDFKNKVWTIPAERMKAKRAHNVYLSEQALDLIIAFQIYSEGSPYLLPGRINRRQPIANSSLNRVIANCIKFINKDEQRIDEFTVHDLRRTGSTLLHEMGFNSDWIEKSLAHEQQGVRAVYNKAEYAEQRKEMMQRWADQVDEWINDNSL

[3] = test system: T3, Rec5 WP_109859198.1 (Aggregatibacter segnis); details: HEK293T inversion; background 0.265
T3 sequence: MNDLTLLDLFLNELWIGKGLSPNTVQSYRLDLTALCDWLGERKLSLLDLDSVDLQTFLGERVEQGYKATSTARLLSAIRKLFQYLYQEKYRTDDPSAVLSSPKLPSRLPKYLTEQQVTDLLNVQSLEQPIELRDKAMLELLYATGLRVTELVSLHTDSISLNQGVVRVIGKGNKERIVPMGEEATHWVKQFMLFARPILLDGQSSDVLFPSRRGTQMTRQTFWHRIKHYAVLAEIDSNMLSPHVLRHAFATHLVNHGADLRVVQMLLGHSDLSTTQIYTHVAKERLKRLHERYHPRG

[4] = test system: T4, Rec6 WP_006717195.1 (Aggregatibacter segnis); details: HEK293T inversion; background 0.2565
T4 sequence: T3 sequence with G40S, D201N

[5] = test system: T5, Rec4 WP_006719234.1 (Aggregatibacter segnis); details: HEK293T inversion; background 0.2565
T5 sequence: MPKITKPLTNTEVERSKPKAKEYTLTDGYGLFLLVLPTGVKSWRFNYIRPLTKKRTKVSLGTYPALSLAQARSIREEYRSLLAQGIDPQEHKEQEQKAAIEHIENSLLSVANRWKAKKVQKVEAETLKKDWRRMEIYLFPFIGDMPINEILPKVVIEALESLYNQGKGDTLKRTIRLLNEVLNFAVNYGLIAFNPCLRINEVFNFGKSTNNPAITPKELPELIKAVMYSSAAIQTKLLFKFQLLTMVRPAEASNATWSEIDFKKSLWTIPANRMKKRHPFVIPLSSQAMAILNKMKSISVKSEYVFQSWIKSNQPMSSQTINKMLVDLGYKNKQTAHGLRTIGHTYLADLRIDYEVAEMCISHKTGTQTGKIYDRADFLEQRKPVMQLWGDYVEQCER

[6] = test system: T6, Rec7 WP_005715799.1 (Aggregatibacter segnis); details: HEK293T inversion; background 0.2565
T6 sequence: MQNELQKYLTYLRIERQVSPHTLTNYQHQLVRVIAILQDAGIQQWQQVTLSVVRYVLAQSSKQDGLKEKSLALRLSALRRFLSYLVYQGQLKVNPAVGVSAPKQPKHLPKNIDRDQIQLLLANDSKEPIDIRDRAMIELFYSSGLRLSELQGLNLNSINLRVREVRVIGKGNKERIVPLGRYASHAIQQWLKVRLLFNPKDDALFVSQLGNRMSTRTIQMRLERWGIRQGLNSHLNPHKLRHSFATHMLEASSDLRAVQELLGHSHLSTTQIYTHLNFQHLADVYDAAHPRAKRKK

[7] = test system: T7, Rec8 WP_017740000.1 (Scytonema hofmannii); details: HEK293T inversion; background 0.264
T7 sequence: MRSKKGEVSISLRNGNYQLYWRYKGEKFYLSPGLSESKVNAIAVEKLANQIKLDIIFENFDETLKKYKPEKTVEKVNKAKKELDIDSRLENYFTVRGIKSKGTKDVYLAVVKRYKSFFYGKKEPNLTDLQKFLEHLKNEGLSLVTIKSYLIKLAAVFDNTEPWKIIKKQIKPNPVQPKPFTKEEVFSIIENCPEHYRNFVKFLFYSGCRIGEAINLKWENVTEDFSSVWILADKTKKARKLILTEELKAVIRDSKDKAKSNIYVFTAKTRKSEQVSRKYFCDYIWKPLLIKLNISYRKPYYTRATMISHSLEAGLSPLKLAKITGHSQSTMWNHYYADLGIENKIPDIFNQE

[8] = test system: T8, Rec9 WP_017744257.1 (Scytonema hofmannii); details: HEK293T inversion; background 0.264
T8 sequence: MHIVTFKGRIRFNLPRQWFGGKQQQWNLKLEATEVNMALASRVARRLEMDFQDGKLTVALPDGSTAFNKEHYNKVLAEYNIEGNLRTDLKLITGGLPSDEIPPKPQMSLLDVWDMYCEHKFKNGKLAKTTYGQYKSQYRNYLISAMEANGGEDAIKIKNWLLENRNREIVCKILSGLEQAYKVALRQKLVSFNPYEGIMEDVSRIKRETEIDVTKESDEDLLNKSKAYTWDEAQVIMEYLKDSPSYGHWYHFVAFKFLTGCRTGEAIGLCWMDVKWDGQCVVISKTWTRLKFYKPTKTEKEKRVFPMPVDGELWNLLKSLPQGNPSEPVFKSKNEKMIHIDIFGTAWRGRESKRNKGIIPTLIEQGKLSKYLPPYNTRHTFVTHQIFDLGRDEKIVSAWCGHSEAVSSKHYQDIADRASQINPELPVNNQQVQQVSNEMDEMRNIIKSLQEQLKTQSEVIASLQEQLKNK

[9] = test system: T9, Rec10 WP_017746151.1 (Scytonema hofmannii); details: HEK293T inversion; background 0.264
T9 sequence: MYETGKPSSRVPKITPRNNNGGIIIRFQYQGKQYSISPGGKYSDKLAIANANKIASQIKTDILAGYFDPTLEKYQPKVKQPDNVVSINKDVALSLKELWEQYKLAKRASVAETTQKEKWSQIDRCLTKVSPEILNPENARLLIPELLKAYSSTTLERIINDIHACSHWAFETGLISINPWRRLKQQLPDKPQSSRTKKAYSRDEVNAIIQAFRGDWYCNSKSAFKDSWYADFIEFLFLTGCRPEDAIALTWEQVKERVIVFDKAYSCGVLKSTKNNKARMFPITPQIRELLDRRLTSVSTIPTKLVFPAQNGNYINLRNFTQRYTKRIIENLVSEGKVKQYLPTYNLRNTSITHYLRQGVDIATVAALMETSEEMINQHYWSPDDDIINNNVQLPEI

[10] = test system: T10, Rec12 WP_038150898.1 (Veillonella montpellierensis); details: HEK293T inversion; background 0.07465
T10 sequence: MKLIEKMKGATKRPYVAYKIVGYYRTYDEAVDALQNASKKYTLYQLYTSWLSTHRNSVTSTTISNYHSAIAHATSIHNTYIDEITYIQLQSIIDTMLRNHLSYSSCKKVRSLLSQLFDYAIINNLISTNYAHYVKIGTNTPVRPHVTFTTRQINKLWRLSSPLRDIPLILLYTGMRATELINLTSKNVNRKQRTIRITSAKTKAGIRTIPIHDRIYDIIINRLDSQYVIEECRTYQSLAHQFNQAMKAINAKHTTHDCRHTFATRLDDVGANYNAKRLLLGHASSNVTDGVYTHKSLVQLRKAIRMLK

[11] = test system: T11, Rec11 WP_038150996.1 (Veillonella montpellierensis); details: HEK293T inversion; background 0.07465
T11 sequence: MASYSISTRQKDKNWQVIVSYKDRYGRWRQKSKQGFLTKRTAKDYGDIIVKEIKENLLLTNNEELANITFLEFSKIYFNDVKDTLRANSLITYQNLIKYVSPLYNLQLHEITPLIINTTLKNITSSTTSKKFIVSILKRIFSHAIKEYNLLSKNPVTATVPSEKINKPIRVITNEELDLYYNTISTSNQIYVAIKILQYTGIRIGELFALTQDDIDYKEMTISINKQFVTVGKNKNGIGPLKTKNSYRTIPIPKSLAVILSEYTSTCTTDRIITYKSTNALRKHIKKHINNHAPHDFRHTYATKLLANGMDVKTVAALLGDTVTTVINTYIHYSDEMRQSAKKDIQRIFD

[12] = test system: T12, Rec23 WP_047824597.1 (Croceicoccus naphthovorans); details: HEK293T inversion; background 0.81
T12 sequence: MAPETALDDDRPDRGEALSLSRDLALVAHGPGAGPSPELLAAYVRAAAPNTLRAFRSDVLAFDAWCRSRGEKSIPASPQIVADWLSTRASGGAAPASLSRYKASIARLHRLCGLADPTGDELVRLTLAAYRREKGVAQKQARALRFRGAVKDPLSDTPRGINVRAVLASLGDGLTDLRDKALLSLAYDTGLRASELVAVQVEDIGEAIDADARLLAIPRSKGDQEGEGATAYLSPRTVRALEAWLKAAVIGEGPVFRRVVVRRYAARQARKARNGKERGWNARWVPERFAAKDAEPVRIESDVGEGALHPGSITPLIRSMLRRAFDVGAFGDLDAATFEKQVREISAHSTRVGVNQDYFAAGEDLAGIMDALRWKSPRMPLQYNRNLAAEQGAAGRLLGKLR

[13] = test system: T13, Rec27 WP_021170377.1 (Sporomusa sp.); details: HEK293T inversion; background 6.51
T13 sequence: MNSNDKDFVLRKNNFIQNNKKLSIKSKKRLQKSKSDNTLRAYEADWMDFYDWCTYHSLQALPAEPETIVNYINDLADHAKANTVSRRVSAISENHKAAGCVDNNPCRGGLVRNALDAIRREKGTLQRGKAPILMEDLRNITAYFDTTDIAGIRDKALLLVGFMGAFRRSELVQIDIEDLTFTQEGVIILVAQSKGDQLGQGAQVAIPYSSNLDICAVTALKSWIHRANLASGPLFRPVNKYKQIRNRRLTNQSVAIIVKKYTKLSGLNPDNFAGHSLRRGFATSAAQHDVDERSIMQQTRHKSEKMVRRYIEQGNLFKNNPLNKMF

[14] = test system: T14, Rec13 WP_126045042.1 (Candidatus Aquarickettsia); details: HEK293T inversion; background 5.795
T14 sequence: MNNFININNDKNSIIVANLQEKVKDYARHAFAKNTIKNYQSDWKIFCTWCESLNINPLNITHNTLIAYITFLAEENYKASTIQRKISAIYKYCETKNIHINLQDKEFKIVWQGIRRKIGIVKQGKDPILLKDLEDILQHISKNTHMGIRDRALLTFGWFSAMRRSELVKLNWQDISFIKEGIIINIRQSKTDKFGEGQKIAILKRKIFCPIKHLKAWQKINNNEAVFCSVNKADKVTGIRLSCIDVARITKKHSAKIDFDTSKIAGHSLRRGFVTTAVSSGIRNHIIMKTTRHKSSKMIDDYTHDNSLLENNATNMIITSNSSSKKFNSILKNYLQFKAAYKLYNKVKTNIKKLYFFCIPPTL

Sequence “AATAAAGGGAATNNNNNNNNATTCCCTTTATT (double strand) [Rec2-7 natural site]” has an activity [1] of 0.133 % GFP+, an activity [2] of 0.096 % GFP+ and an activity [3] of 0.195 % GFP+. The activity [4] was 0.135 % GFP+, the activity [5] was 0.134 % GFP+ and the activity [6] was 0.108 % GFP+.
With “CAATTTTTGAAANNNNNNNTTTCAAAAATTG (double strand) [Rec8-10 natural site]” the activity [7] was 0.165 % GFP+, the activity [8] was 0.133 % GFP+ and the activity [9] was 0.168 % GFP+.
“CACTGATATATANNNNNNNTATATATCAGTG (double strand) [Rec11-12 natural site]” was tested, and the activity [10] was 0.031 % GFP+ and the activity [11] was 0.0237 % GFP+.
“GGACATGTGATANNNNNNNNTATCACATGTTG (double strand) [Rec23 natural site]” was tested, and the activity [12] was 43.3 % GFP+.
With “TAACTAATGATANNNNNNNNNTATCACTAGTTG (double strand) [Rec27 natural site]” the activity [13] was 62.7 % GFP+.
“TAATGTTCTATANNNNNNNNTATAAAACACTA (double strand) [Rec13 natural site]” was tested, and the activity [14] was 4.46 % GFP+.

Source: patent US20220396813
